Stoichiometry N data for 3 substances are collected here from PMC7414852.

As usually defined, the stoichiometry N is a count of units in the complex or per binding partner.

Experiment in all cases: cryo-EM structure
For assay [1], the target named is Vip3Aa16 N-terminal trypsin fragment (domain I, to K198) (Bacillus thuringiensis).
Assay [2] deals with Trypsin-activated Vip3Aa16 toxin (cleaved at K198, both fragments kept together) (Bacillus thuringiensis).
For assay [3], the target named is Vip3Aa16 protoxin (Vegetative Insecticidal Protein 3Aa from Bacillus thuringiensis), residues 10-789 (Bacillus thuringiensis).

In turn, “Vip3Aa16 N-terminal trypsin fragment (domain I, to K198) (domain or fragment)” displayed a stoichiometry N in assay [1] of 4.
In the case of “Trypsin-activated Vip3Aa16 toxin (cleaved at K198, both fragments kept together) (complex)”, in assay [2], the stoichiometry N worked out at 4.
Consider “Vip3Aa16 protoxin (Vegetative Insecticidal Protein 3Aa from Bacillus thuringiensis), residues 10-789 (natural protein)”, for which the stoichiometry N in assay [3] worked out at 4.
